Biological target: human IL-6 (human, UniProt P05231 30-212)
Test: SPR (Biacore), supernatant antibody on Protein A chip, IL-6 flowed, 37 C
Description: Antibodies were captured on a Protein A chip (GE) by injecting 1:20 cell supernatant dilutions at 10 μL/min for 60 seconds. […] The sensor chip was regenerated by a 60 seconds injection of 10 mM Glycine pH 1.7 at the flow rate of 50 μL/min. […] For this setup, 1 μg/mL of purified antibody was injected over a Protein A chip at 10 μL/min for 25 seconds. […] The sensor chip was regenerated by a 60 seconds injection of 10 mM Glycine pH 1.7 at flow rate of 50 μL/min. Data analysis for supernatant and purified samples were performed using BIAevaluation software (GE). All sensorgrams were double reference subtracted and fit using a 1:1 Langmuir binding model.

Chain of human IL-6 (P05231 30-212 limits assumed): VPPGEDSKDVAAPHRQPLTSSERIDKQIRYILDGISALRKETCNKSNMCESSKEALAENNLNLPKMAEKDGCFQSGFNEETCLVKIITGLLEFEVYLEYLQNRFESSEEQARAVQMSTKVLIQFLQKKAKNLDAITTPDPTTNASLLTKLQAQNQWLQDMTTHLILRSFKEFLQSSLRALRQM

| Binder | Kd | koff | kon |
| --- | --- | --- | --- |
| anti-IL-6 antibody, heavy chain I51W, G66D / light chain M32L, M50D, N52S, M88Q (antibody, human IgG1, V domains shown, Human IgG1) VH: EVQLVESGGGLVQPGGSLRLSCAASGFTFSPFAMSWVRQAPGKGLEWVAKWSPGGSWTYYSDTVTDRFTFSLDTSKSTAYLQMNSLRAEDTAVYYCARQLWGYYALDIWGQGTLVTVSS VL: DIQLTQSPSSLSASVGDRVTITCSASISVSYLYWYQQKPGKAPKLLIYDDSSLASGVPSRFSGSGSGTDFTLTISSLQPEDFATYYCQQWSGYPYTFGQGTKVEIK | 4.84 nM | 0.00383 s⁻¹ | 791000 M⁻¹ s⁻¹ |
| anti-IL-6 antibody, heavy chain S35G, G66D / light chain M32L, M50D, N52S, M88Q (antibody, human IgG1, V domains shown, Human IgG1) VH: EVQLVESGGGLVQPGGSLRLSCAASGFTFSPFAMGWVRQAPGKGLEWVAKISPGGSWTYYSDTVTDRFTFSLDTSKSTAYLQMNSLRAEDTAVYYCARQLWGYYALDIWGQGTLVTVSS VL: DIQLTQSPSSLSASVGDRVTITCSASISVSYLYWYQQKPGKAPKLLIYDDSSLASGVPSRFSGSGSGTDFTLTISSLQPEDFATYYCQQWSGYPYTFGQGTKVEIK | 0.609 nM | 0.000781 s⁻¹ | 1.28e+06 M⁻¹ s⁻¹ |
| anti-IL-6 antibody, heavy chain T63A, G66D / light chain M32L, M50D, N52S, M88Q (antibody, human IgG1, V domains shown, Human IgG1) VH: EVQLVESGGGLVQPGGSLRLSCAASGFTFSPFAMSWVRQAPGKGLEWVAKISPGGSWTYYSDAVTDRFTFSLDTSKSTAYLQMNSLRAEDTAVYYCARQLWGYYALDIWGQGTLVTVSS VL: DIQLTQSPSSLSASVGDRVTITCSASISVSYLYWYQQKPGKAPKLLIYDDSSLASGVPSRFSGSGSGTDFTLTISSLQPEDFATYYCQQWSGYPYTFGQGTKVEIK | 0.268 nM | 0.000458 s⁻¹ | 1.7e+06 M⁻¹ s⁻¹ |
| anti-IL-6 antibody, heavy chain S35F, G66D / light chain M32L, M50D, N52S, M88Q (antibody, human IgG1, V domains shown, Human IgG1) VH: EVQLVESGGGLVQPGGSLRLSCAASGFTFSPFAMFWVRQAPGKGLEWVAKISPGGSWTYYSDTVTDRFTFSLDTSKSTAYLQMNSLRAEDTAVYYCARQLWGYYALDIWGQGTLVTVSS VL: DIQLTQSPSSLSASVGDRVTITCSASISVSYLYWYQQKPGKAPKLLIYDDSSLASGVPSRFSGSGSGTDFTLTISSLQPEDFATYYCQQWSGYPYTFGQGTKVEIK | 3.17 nM | 0.00484 s⁻¹ | 1.53e+06 M⁻¹ s⁻¹ |
| anti-IL-6 antibody, heavy chain S35D, G66D / light chain M32L, M50D, N52S, M88Q (antibody, human IgG1, V domains shown, Human IgG1) VH: EVQLVESGGGLVQPGGSLRLSCAASGFTFSPFAMDWVRQAPGKGLEWVAKISPGGSWTYYSDTVTDRFTFSLDTSKSTAYLQMNSLRAEDTAVYYCARQLWGYYALDIWGQGTLVTVSS VL: DIQLTQSPSSLSASVGDRVTITCSASISVSYLYWYQQKPGKAPKLLIYDDSSLASGVPSRFSGSGSGTDFTLTISSLQPEDFATYYCQQWSGYPYTFGQGTKVEIK | 0.753 nM | 0.00177 s⁻¹ | 2.35e+06 M⁻¹ s⁻¹ |
| anti-IL-6 antibody, heavy chain S35T, G66D / light chain M32L, M50D, N52S, M88Q (antibody, human IgG1, V domains shown, Human IgG1) VH: EVQLVESGGGLVQPGGSLRLSCAASGFTFSPFAMTWVRQAPGKGLEWVAKISPGGSWTYYSDTVTDRFTFSLDTSKSTAYLQMNSLRAEDTAVYYCARQLWGYYALDIWGQGTLVTVSS VL: DIQLTQSPSSLSASVGDRVTITCSASISVSYLYWYQQKPGKAPKLLIYDDSSLASGVPSRFSGSGSGTDFTLTISSLQPEDFATYYCQQWSGYPYTFGQGTKVEIK | 0.498 nM | 0.000711 s⁻¹ | 1.43e+06 M⁻¹ s⁻¹ |
| anti-IL-6 antibody, heavy chain I51Y, G66D / light chain M32L, M50D, N52S, M88Q (antibody, human IgG1, V domains shown, Human IgG1) VH: EVQLVESGGGLVQPGGSLRLSCAASGFTFSPFAMSWVRQAPGKGLEWVAKYSPGGSWTYYSDTVTDRFTFSLDTSKSTAYLQMNSLRAEDTAVYYCARQLWGYYALDIWGQGTLVTVSS VL: DIQLTQSPSSLSASVGDRVTITCSASISVSYLYWYQQKPGKAPKLLIYDDSSLASGVPSRFSGSGSGTDFTLTISSLQPEDFATYYCQQWSGYPYTFGQGTKVEIK | 4.04 nM | 0.0247 s⁻¹ | 6.1e+06 M⁻¹ s⁻¹ |
| anti-IL-6 antibody, heavy chain S35I, G66D / light chain M32L, M50D, N52S, M88Q (antibody, human IgG1, V domains shown, Human IgG1) VH: EVQLVESGGGLVQPGGSLRLSCAASGFTFSPFAMIWVRQAPGKGLEWVAKISPGGSWTYYSDTVTDRFTFSLDTSKSTAYLQMNSLRAEDTAVYYCARQLWGYYALDIWGQGTLVTVSS VL: DIQLTQSPSSLSASVGDRVTITCSASISVSYLYWYQQKPGKAPKLLIYDDSSLASGVPSRFSGSGSGTDFTLTISSLQPEDFATYYCQQWSGYPYTFGQGTKVEIK | 1.62 nM | 0.00147 s⁻¹ | 904000 M⁻¹ s⁻¹ |
| anti-IL-6 antibody, heavy chain T63D, G66D / light chain M32L, M50D, N52S, M88Q (antibody, human IgG1, V domains shown, Human IgG1) VH: EVQLVESGGGLVQPGGSLRLSCAASGFTFSPFAMSWVRQAPGKGLEWVAKISPGGSWTYYSDDVTDRFTFSLDTSKSTAYLQMNSLRAEDTAVYYCARQLWGYYALDIWGQGTLVTVSS VL: DIQLTQSPSSLSASVGDRVTITCSASISVSYLYWYQQKPGKAPKLLIYDDSSLASGVPSRFSGSGSGTDFTLTISSLQPEDFATYYCQQWSGYPYTFGQGTKVEIK | 0.249 nM | 0.000413 s⁻¹ | 1.66e+06 M⁻¹ s⁻¹ |
| anti-IL-6 antibody, heavy chain S35W, G66D / light chain M32L, M50D, N52S, M88Q (antibody, human IgG1, V domains shown, Human IgG1) VH: EVQLVESGGGLVQPGGSLRLSCAASGFTFSPFAMWWVRQAPGKGLEWVAKISPGGSWTYYSDTVTDRFTFSLDTSKSTAYLQMNSLRAEDTAVYYCARQLWGYYALDIWGQGTLVTVSS VL: DIQLTQSPSSLSASVGDRVTITCSASISVSYLYWYQQKPGKAPKLLIYDDSSLASGVPSRFSGSGSGTDFTLTISSLQPEDFATYYCQQWSGYPYTFGQGTKVEIK | 34.6 nM | 0.00591 s⁻¹ | 171000 M⁻¹ s⁻¹ |
| anti-IL-6 antibody, heavy chain S35K, G66D / light chain M32L, M50D, N52S, M88Q (antibody, human IgG1, V domains shown, Human IgG1) VH: EVQLVESGGGLVQPGGSLRLSCAASGFTFSPFAMKWVRQAPGKGLEWVAKISPGGSWTYYSDTVTDRFTFSLDTSKSTAYLQMNSLRAEDTAVYYCARQLWGYYALDIWGQGTLVTVSS VL: DIQLTQSPSSLSASVGDRVTITCSASISVSYLYWYQQKPGKAPKLLIYDDSSLASGVPSRFSGSGSGTDFTLTISSLQPEDFATYYCQQWSGYPYTFGQGTKVEIK | 2.64 nM | 0.00346 s⁻¹ | 1.31e+06 M⁻¹ s⁻¹ |
| anti-IL-6 antibody, heavy chain S35L, G66D / light chain M32L, M50D, N52S, M88Q (antibody, human IgG1, V domains shown, Human IgG1) VH: EVQLVESGGGLVQPGGSLRLSCAASGFTFSPFAMLWVRQAPGKGLEWVAKISPGGSWTYYSDTVTDRFTFSLDTSKSTAYLQMNSLRAEDTAVYYCARQLWGYYALDIWGQGTLVTVSS VL: DIQLTQSPSSLSASVGDRVTITCSASISVSYLYWYQQKPGKAPKLLIYDDSSLASGVPSRFSGSGSGTDFTLTISSLQPEDFATYYCQQWSGYPYTFGQGTKVEIK | 2.59 nM | 0.00243 s⁻¹ | 942000 M⁻¹ s⁻¹ |
| anti-IL-6 antibody, heavy chain S35A, G66D / light chain M32L, M50D, N52S, M88Q (antibody, human IgG1, V domains shown, Human IgG1) VH: EVQLVESGGGLVQPGGSLRLSCAASGFTFSPFAMAWVRQAPGKGLEWVAKISPGGSWTYYSDTVTDRFTFSLDTSKSTAYLQMNSLRAEDTAVYYCARQLWGYYALDIWGQGTLVTVSS VL: DIQLTQSPSSLSASVGDRVTITCSASISVSYLYWYQQKPGKAPKLLIYDDSSLASGVPSRFSGSGSGTDFTLTISSLQPEDFATYYCQQWSGYPYTFGQGTKVEIK | 0.657 nM | 0.00126 s⁻¹ | 1.93e+06 M⁻¹ s⁻¹ |
| anti-IL-6 antibody, heavy chain S35P, G66D / light chain M32L, M50D, N52S, M88Q (antibody, human IgG1, V domains shown, Human IgG1) VH: EVQLVESGGGLVQPGGSLRLSCAASGFTFSPFAMPWVRQAPGKGLEWVAKISPGGSWTYYSDTVTDRFTFSLDTSKSTAYLQMNSLRAEDTAVYYCARQLWGYYALDIWGQGTLVTVSS VL: DIQLTQSPSSLSASVGDRVTITCSASISVSYLYWYQQKPGKAPKLLIYDDSSLASGVPSRFSGSGSGTDFTLTISSLQPEDFATYYCQQWSGYPYTFGQGTKVEIK | 27.1 nM | 0.00548 s⁻¹ | 202000 M⁻¹ s⁻¹ |
| anti-IL-6 antibody, heavy chain S35E, G66D / light chain M32L, M50D, N52S, M88Q (antibody, human IgG1, V domains shown, Human IgG1) VH: EVQLVESGGGLVQPGGSLRLSCAASGFTFSPFAMEWVRQAPGKGLEWVAKISPGGSWTYYSDTVTDRFTFSLDTSKSTAYLQMNSLRAEDTAVYYCARQLWGYYALDIWGQGTLVTVSS VL: DIQLTQSPSSLSASVGDRVTITCSASISVSYLYWYQQKPGKAPKLLIYDDSSLASGVPSRFSGSGSGTDFTLTISSLQPEDFATYYCQQWSGYPYTFGQGTKVEIK | 0.867 nM | 0.00189 s⁻¹ | 2.18e+06 M⁻¹ s⁻¹ |
| anti-IL-6 antibody, heavy chain S35V, G66D / light chain M32L, M50D, N52S, M88Q (antibody, human IgG1, V domains shown, Human IgG1) VH: EVQLVESGGGLVQPGGSLRLSCAASGFTFSPFAMVWVRQAPGKGLEWVAKISPGGSWTYYSDTVTDRFTFSLDTSKSTAYLQMNSLRAEDTAVYYCARQLWGYYALDIWGQGTLVTVSS VL: DIQLTQSPSSLSASVGDRVTITCSASISVSYLYWYQQKPGKAPKLLIYDDSSLASGVPSRFSGSGSGTDFTLTISSLQPEDFATYYCQQWSGYPYTFGQGTKVEIK | 1.33 nM | 0.00137 s⁻¹ | 1.03e+06 M⁻¹ s⁻¹ |
| anti-IL-6 antibody, heavy chain T63F, G66D / light chain M32L, M50D, N52S, M88Q (antibody, human IgG1, V domains shown, Human IgG1) VH: EVQLVESGGGLVQPGGSLRLSCAASGFTFSPFAMSWVRQAPGKGLEWVAKISPGGSWTYYSDFVTDRFTFSLDTSKSTAYLQMNSLRAEDTAVYYCARQLWGYYALDIWGQGTLVTVSS VL: DIQLTQSPSSLSASVGDRVTITCSASISVSYLYWYQQKPGKAPKLLIYDDSSLASGVPSRFSGSGSGTDFTLTISSLQPEDFATYYCQQWSGYPYTFGQGTKVEIK | 0.274 nM | 0.000459 s⁻¹ | 1.67e+06 M⁻¹ s⁻¹ |
| anti-IL-6 antibody, heavy chain S35Q, G66D / light chain M32L, M50D, N52S, M88Q (antibody, human IgG1, V domains shown, Human IgG1) VH: EVQLVESGGGLVQPGGSLRLSCAASGFTFSPFAMQWVRQAPGKGLEWVAKISPGGSWTYYSDTVTDRFTFSLDTSKSTAYLQMNSLRAEDTAVYYCARQLWGYYALDIWGQGTLVTVSS VL: DIQLTQSPSSLSASVGDRVTITCSASISVSYLYWYQQKPGKAPKLLIYDDSSLASGVPSRFSGSGSGTDFTLTISSLQPEDFATYYCQQWSGYPYTFGQGTKVEIK | 0.3 nM | 0.000626 s⁻¹ | 2.09e+06 M⁻¹ s⁻¹ |
| anti-IL-6 antibody, heavy chain S35Y, G66D / light chain M32L, M50D, N52S, M88Q (antibody, human IgG1, V domains shown, Human IgG1) VH: EVQLVESGGGLVQPGGSLRLSCAASGFTFSPFAMYWVRQAPGKGLEWVAKISPGGSWTYYSDTVTDRFTFSLDTSKSTAYLQMNSLRAEDTAVYYCARQLWGYYALDIWGQGTLVTVSS VL: DIQLTQSPSSLSASVGDRVTITCSASISVSYLYWYQQKPGKAPKLLIYDDSSLASGVPSRFSGSGSGTDFTLTISSLQPEDFATYYCQQWSGYPYTFGQGTKVEIK | 3.43 nM | 0.00404 s⁻¹ | 1.18e+06 M⁻¹ s⁻¹ |
